PMC6506529, “Structural Insights into Catalytic Versatility of the Flavin-dependent Hydroxylase (HpaB) from Escherichia coli” (Scientific Reports, 2019)

Experiments:
Conditions in all cases: apparent, 10 μM FAD, 1 mM NADH, 500 nM HpaC, 20 mM KPi pH 7.0, 30 °C
O=C(O)/C=C/c1ccc(O)cc1 [1] = experiment: HPLC of product and substrate; Michaelis-Menten fit; assay type: biochemical, Escherichia coli
Source text: (§1) HPLC of product and substrate; Michaelis-Menten fit on EcHpaB

O=C(O)/C=C/c1ccc(O)cc1 [2] = experiment: purified protein; assay type: biochemical, Escherichia coli
Source text: as §1

O=c1ccc2ccc(O)cc2o1 = experiment: purified protein
O=C(O)/C=C/c1ccc(O)cc1 [3] = experiment: purified protein; assay type: biochemical, Escherichia coli; remark: listed apart in the source
purified protein [4] = substrate: O=C1C[C@@H](c2ccc(O)cc2)Oc2cc(O)cc(O)c21; experiment: purified protein
purified protein [5] = substrate: O=c1ccc2ccc(O)cc2o1; experiment: purified protein; remark: listed apart in the source
purified protein [6] = substrate: Oc1ccc(/C=C/c2cc(O)cc(O)c2)cc1; experiment: purified protein
[7] = substrate: O=C(O)/C=C/c1ccc(O)cc1; experiment: HPLC of product and substrate; Michaelis-Menten fit; assay type: biochemical, Escherichia coli; remark: listed apart in the source

Molecule: EcHpaB (Escherichia coli; A211D/E216M/F208A/G207M/G209M/G215A/M214G/N217V/Q212G/S210V/V213S)
- Km (O=C(O)/C=C/c1ccc(O)cc1 [1]): 235.3 ± 52.5 µM
- kcat (O=C(O)/C=C/c1ccc(O)cc1 [1]): 0.375 ± 0.0217 s⁻¹
- kcat/Km (O=C(O)/C=C/c1ccc(O)cc1 [1]): 1560 M⁻¹ s⁻¹

Molecule: EcHpaB (Escherichia coli; A211D/E216M/F208A/G207M/G209M/G215A/N217V/S210V)
- Km (O=C(O)/C=C/c1ccc(O)cc1 [2]): 210.8 ± 85.3 µM
- kcat (O=C(O)/C=C/c1ccc(O)cc1 [2]): 0.512 ± 0.0617 s⁻¹
- kcat/Km (O=C(O)/C=C/c1ccc(O)cc1 [2]): 2400 M⁻¹ s⁻¹

Molecule: EcHpaB (Escherichia coli; A211D/E216S/F208S/M214S/N217D/Q212L/V213G)
- Km (O=c1ccc2ccc(O)cc2o1): 176.9 ± 35.9 µM
- kcat (O=c1ccc2ccc(O)cc2o1): 0.348 s⁻¹
- kcat/Km (O=c1ccc2ccc(O)cc2o1): 2000 M⁻¹ s⁻¹
- Km (O=C(O)/C=C/c1ccc(O)cc1 [3]): 132.1 ± 29.1 µM
- kcat (O=C(O)/C=C/c1ccc(O)cc1 [3]): 0.365 ± 0.0167 s⁻¹
- kcat/Km (O=C(O)/C=C/c1ccc(O)cc1 [3]): 2800 M⁻¹ s⁻¹

Molecule: EcHpaB (Escherichia coli; A211D/F208A/G207M/G209M/S210V)
- Km (O=C(O)/C=C/c1ccc(O)cc1 [3]): 387.9 ± 32.7 µM
- kcat (O=C(O)/C=C/c1ccc(O)cc1 [3]): 0.183 ± 0.00667 s⁻¹
- kcat/Km (O=C(O)/C=C/c1ccc(O)cc1 [3]): 470 M⁻¹ s⁻¹

Molecule: EcHpaB (Escherichia coli; E216M/G215A/N217V)
- Km (O=C(O)/C=C/c1ccc(O)cc1 [1]): 235.6 ± 40.2 µM
- kcat (O=C(O)/C=C/c1ccc(O)cc1 [1]): 0.497 ± 0.0217 s⁻¹
- kcat/Km (O=C(O)/C=C/c1ccc(O)cc1 [1]): 2100 M⁻¹ s⁻¹

B1: EcHpaB (Escherichia coli) (protein)
chain: MKPEDFRASTQRPFTGEEYLKSLQDGREIYIYGERVKDVTTHPAFRNAAASVAQLYDALHKPEMQDSLCWNTDTGSGGYTHKFFRVAKSADDLRHERDAIAEWSRLSYGWMGRTPDYKAAFGCALGGTPGFYGQFEQNARNWYTRIQETGLYFNHAIVNPPIDRHLPTDKVKDVYIKLEKETDAGIIVSGAKVVATNSALTHYNMIGFGSAQVMGENPDFALMFVAPMDADGVKLISRASYEMVAGATGSPYDYPLSSRFDENDAILVMDNVLIPWENVLLYRDFDRCRRWTMEGGFARMYPLQACVRLAVKLDFITALLKKSLECTGTLEFRGVQADLGEVVAWRNTFWALSDSMCSEATPWVNGAYLPDHAALQTYRVLAPMAYAKIKNIIERNVTSGLIYLPSSARDLNNPQIDQYLAKYVRGSNGMDHVQRIKILKLMWDAIGSEFGGRHELYEINYSGSQDEIRLQCLRQAQSSGNMDKMMAMVDRCLSEYDQNGWTVPHLHNNDDINMLDKLLK
notes: (α2)2 tetramer; expressed in E. coli BW25113 (F') from pZE12-luc, purified; assayed with separate purified HpaC reductase
- Km (purified protein [4]): 349.8 ± 77.6 µM
- kcat (purified protein [4]): 0.15 s⁻¹
- kcat/Km (purified protein [4]): 400 M⁻¹ s⁻¹
- Km (purified protein [5]): 217.0 ± 60.6 µM
- kcat (purified protein [5]): 0.418 s⁻¹
- kcat/Km (purified protein [5]): 1900 M⁻¹ s⁻¹
- Km (purified protein [6]): 174.3 ± 17.9 µM
- kcat (purified protein [6]): 0.437 s⁻¹
- kcat/Km (purified protein [6]): 2500 M⁻¹ s⁻¹
- Km [7]: 137.6 ± 21.0 µM
- kcat [7]: 0.387 ± 0.0117 s⁻¹
- kcat/Km [7]: 2800 M⁻¹ s⁻¹
